Data on four molecules can be found in patent publication US20210188980A1 (SHANGHAI EPIMAB BIOTHERAPEUTICS, published 2021).

Changes are numbered by the printed parent chain.

The chains are these.
B1: mAb749 (antibody, V domains shown)
VH: EVQLQQSGAELVRPGASVKVSCTASDFNIKDDYVHWVKQRPEQGLEWIGWIDPENGDTEYASKFQGKATITADTSSNTAYLQLSSLTSEDTAVYFCSTWDAEENYWGQGTTLSVSS
VL: DIVLTQAAPSVPVTPGESVSISCRSSKSLLHSNGNTYLYWFLQRPGQSPQVLIYRMSNLASGVPVRFSGSGSGTAFTLRISRVEAEDVGVYYCMQHLEYPFTFGSGTKLEIK
notes: murine hybridoma anti-LAG-3 mAb
B2: mAb750 (antibody, V domains shown)
VH: EVQLQQSGAELVRPGASVKLSCTPSGLNIKDDYIHWVKQRPEQGLEWIGWIDPENGDTEYASKFQGKATITADTSSNTAYLQLSSLTSEDSAVYYCCTADYRNWYWGQGTTLTVSS
VL: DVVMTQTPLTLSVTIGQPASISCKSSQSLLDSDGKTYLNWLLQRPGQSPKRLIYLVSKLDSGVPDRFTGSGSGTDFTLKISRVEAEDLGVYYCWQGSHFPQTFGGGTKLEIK
notes: as for B1
B3: mAb746 (antibody, V domains shown)
VH: EVQLQQSGAELVRPGASVKLSCTASDFNIKDDYMHWVKQRPEQGLDWIGWIVPENGNTEYASKFQGKATITADTSSNTAYLQLSSLTSEDTAVYYCTVYGDYWGQGTTLTVSS
VL: DIQMTQSPSSLSASLGERVSLNCRASQEISGYLSWLQQKSDGTIKRLIYAASTLDSGVPKRFSGSRSGSDYSLTISSLESEDFADYYCLQYASYPLTFGAGTKLELK
notes: murine hybridoma anti-LAG-3 mAb; also called rnAb746; 3502-mAb746
B4: mAb747 (antibody, V domains shown)
VH: B3 VH
VL: B3 VL with S40P, D85A
notes: murine hybridoma anti-LAG-3 mAb; also called 3502-mAb747

For the first assay, the target named is T1, human LAG-3 expressed on cells (human, UniProt P18627 23-525).
T1 sequence (looked up): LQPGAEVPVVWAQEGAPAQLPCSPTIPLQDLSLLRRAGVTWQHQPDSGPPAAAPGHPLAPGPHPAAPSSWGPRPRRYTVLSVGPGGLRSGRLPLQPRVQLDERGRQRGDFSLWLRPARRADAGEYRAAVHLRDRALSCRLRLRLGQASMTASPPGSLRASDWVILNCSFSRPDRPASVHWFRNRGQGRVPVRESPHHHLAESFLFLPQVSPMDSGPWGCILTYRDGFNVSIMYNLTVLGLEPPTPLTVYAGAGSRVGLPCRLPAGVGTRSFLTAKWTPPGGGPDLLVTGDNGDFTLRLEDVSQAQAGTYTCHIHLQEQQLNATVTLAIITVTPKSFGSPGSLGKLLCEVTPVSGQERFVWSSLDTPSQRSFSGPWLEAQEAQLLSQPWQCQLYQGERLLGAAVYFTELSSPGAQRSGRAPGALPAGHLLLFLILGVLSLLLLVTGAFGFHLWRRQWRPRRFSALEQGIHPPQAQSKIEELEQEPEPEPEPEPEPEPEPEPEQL
Put plainly: cell-based or functional assay.
Turning to B1, the “Max IL-2” value came to 513 pg/mL.
The same measure, in the same setting: the result for B2 reads 552 pg/mL.
For B3, the “Antigen-dependent Activation, Mouse IL-2, EC50” value is 1.28 nM and the “Max IL-2” value stood at 654 pg/mL.
Consider B4, for which the “Antigen-dependent Activation, Mouse IL-2, EC50” value came to 1.27 nM and the “Max IL-2” value is 729 pg/mL.

A further assay addresses T2, human LAG-3 ECD/Fc fusion protein (human).
T2 construct: also called HuLAG-3 ECD/Fc
Put plainly: ELISA, coated huLAG-3 ECD/Fc. Here is the method:
The supernatants of hybridoma clones were primarily screened by ELISA. Briefly, 50 μl/well of […] human LAG-3 ECD/Fc in NaHCO₃ were directly coated in each well of 96-well plate overnight. Plates were washed 3 times with 1×PBST, 300 μl per well. After blocking with 1% BSA in PBST at 250 μl per well and incubating at room temperature for 1 hour, the hybridoma supernatants were added at 50 μl per well and incubated at 37° C. for 1 hour. After washing, an HRP-linked goat anti-mouse IgG Fc secondary antibody (Cat. No. A0168, Sigma) was added at 100 μl/well and the plates were incubated at room temperature for 1 hour. TMB reagent (InnoReagents) was used to detect and develop the ELISA signal at 100 μl/well for 15 minutes, the reaction was stopped with 1 Normal HCL. The plates were read with a plate reader (SpectraMax® M5e, Molecular Devices, USA) at a wavelength of 450 nm. The ELISA-positive antibody producer clones were further verified by FACS analysis using methods similar to Example 1.4, above, except that stable HEK 293F cell lines expressing either human LAG-3 or cynomolgus LAG-3 were used. Hybridomas producing LAG-3 binding activity were selected and further characterized in a receptor blocking assay (RBA).
A binding ELISA was performed in the same way as described in Example 7.2 above. Each purified antibody was 10-fold serially diluted. After blocking of a 96-well assay plate with wells containing immobilized LAG-3 ECD/Fc fusion protein targets, the purified antibody samples with diluted concentrations were added to wells of the assay plate. The HRP-linked anti-mouse IgG antibody (A0168, Sigma) and TMB reagent were used to detect and develop the ELISA signal, which were read on a SpectraMax M5e plate reader at wavelength of 450 nm. Curves were fitted using GraphPad software, and EC50 values were calculated. Similarly, a RBA was also performed as described in Example 7.3 with titrated, purified antibodies, and maximum inhibition percentages and IC50 values were determined.
As to B1, a half-maximal effect (EC50) was put at 0.55 nM.
Take B2: the EC50 amounted to 0.25 nM.
Same read-out and setting: the result for B3 reads 0.31 nM; that for B4, 0.25 nM.

The target in another assay is T1, human LAG-3 expressed on cells. Put plainly: FACS, HEK 293F huLAG-3 cells. As to the method: (§1) FAGS analysis was performed using methods similar to Example 1.4, above, except that stable HEK 293F cell lines expressing either human LAG-3 cynomolgus LAG-3 were used. LAG-3 expressing cells were charged at 2×10⁴ cell per well into 96-well assay round-bottomed assay plates (Cat. No. 3799; Corning) and stained with purified anti-LAG-3 antibodies. LAG-3 antibodies were detected with AlexaFluor® Donkey anti-Mouse Ig (H+L) Highly Cross-Adsorbed Secondary Antibody (Cat. No. A21202; Invitrogen), and cell fluorescence was monitored using a flow cytometer. The data were processed by GraphPad software, and EC50 values were calculated.
Take B1: the midpoint of the response, the EC50, lay at 3.3 nM and the Max-MFI came to 124 MFI.
As to B2, the EC50 amounted to 24.1 nM and the Max-MFI was 88.7 MFI.
In the same order, the values of B3 are 13 nM and 121 MFI.
B4: the response was half-maximal at 1.1 nM (EC50) and the Max-MFI was determined as 104 MFI.

The target of a further assay is T3, cynomolgus LAG-3 expressed on HEK 293F cells (cynomolgus).
T3 construct: whole, on cells
Nature of the assay: FACS, HEK 293F cynoLAG-3 cells. Here is the method:
as §1
B1 showed an EC50 of 14.3 nM and a Max-MFI of 67.4 MFI.
For B2, in that order: 114 nM and 36.7 MFI.
In the same order, the values of B3 are 4.1 nM and 66.2 MFI.
In the same order, the values of B4 are 3.1 nM and 65.2 MFI.

A further assay concerns the target LAG-3 antigen (Biacore analyte of Example 7.7). Nature of the assay: SPR Biacore T200, mAb captured, LAG-3 antigen analyte. Here is the method: For antibodies with high binding affinity in ELISA and FACS assays, as well as potent functional activity, binding affinities were determined based on measurement of binding kinetic constants in real time binding reactions using Biacore surface plasmon resonance. Briefly, the binding assay of antibody to antigen was performed using a Biacore T200 system through an antibody capture approach. Anti-mouse IgG Fc antibody was immobilized on a CM5 sensor chip according to the manufacturer's instructions. The test anti-LAG-3 murine monoclonal antibody was injected and captured by the immobilized anti-mouse IgG Fc. Then serial concentrations of LAG-3 antigen were individually injected, and the binding profile was recorded for each concentration of antigen analyte. The assay temperature was 25° C., and the association and dissociation times were 180 and 1200 seconds, respectively. The Biacore data were fitted using Biacore T200 evaluation software 1.0 according to a 1:1 binding model to calculate the association (kₒₙ) and dissociation (koff) rate constants and from these calculations the equilibrium dissociation constant (KD) was determined.
B1 gave a Kd of 189 nM.
On the same count and under the same terms, the result for B2 reads 75.1 nM.
Consider B3, for which binding was characterised by a dissociation constant (Kd) of 37.7 nM.
Still for that read-out and setting: the result for B4 reads 52 nM.

For the next assay, the target named is T2, human LAG-3 ECD/Fc fusion protein. Put plainly: FACS RBA, huLAG-3 ECD/Fc on Raji; competitor MHC Class II. Here is the method:
Supernatants displaying LAG-3 specific activity were tested for the ability to block LAG-3 receptor binding to MHC Class II. Raji human B cell lymphoblasts express high levels of MCH Class II and were used as binding targets for LAG-3 ECD/Fc proteins described above. Briefly, Raji cells were harvested and resuspend in FACS buffer and plated in 96-well plates (2×10⁵ cells/well). Anti-LAG-3 hybridoma supernatants were mixed with soluble LAG-3 ECD/Fc and the mixture was added to wells at a final volume of 100 μl/well. After adding the mixture to cells, the plates were incubated at room temperature for 30 minutes. After washing twice with PBS, the cells were incubated with anti-human IgG Alexa Fluor® 488 secondary antibody at 4° C. for 1 hour, washed twice with PBS, then fluorescence was measured on a flow cytometer.
Purified anti-LAG-3 antibodies also were tested in a RBA in the same manner as described in Example 7.3. Antibodies were also tested in an antigen-specific T cell activation assay, as follows: A huLAG-3 expressing murine T hybridoma cell line was generated to order by ChemPartner (Shanghai, CN). Mouse splenocytes from the same strain of mice were used as effector cells. The hybridoma expressing the huLAG-3 receptor protein is capable of binding to MHC Class II-positive mouse splenocytes, with inhibitory effect via engagement of Class II. The assay tests for anti-LAG-3 antibody-mediated reversal of the inhibitory effect, as measured by increased production of IL-2. Mouse spleenocytes were harvested from 6-8 week-old female C57BL/6 mice, red blood cells were lysed using Red Blood Cell Lysis Buffer (Sigma-Aldrich; R7757) according to the maker's instructions. Next, 50 μl T hybridoma-huLAG-3 cells (2×10⁶ cells/ml) were seeded in each well of a 96-well culture plate, and then a series of anti-LAG-3 monoclonal antibodies in solution at 50 μl/well were added and incubated at 37° C. for 30 min. Mouse splenocytes (4×10⁶ cells/ml) and the antigen (20 μg/ml) were mixed and incubated at 37° C. for 30 min. The mixture (100 μl/well) was added into each well that was already seeded with T hybridoma-huLAG-3 cells and anti-LAG-3 mAbs. The mixture of antibodies, T hybridoma-huLAG-3 cells, mouse splenocytes, and the antigen was cultured for 3 days.
With B1, the IC50 worked out at 4.73 nM and the “Max. Inhib. (%)” value was determined as 93.9%.
In the same order, the values of B2 are 7.15 nM and 96.6%.
With B3, the IC50 was found to be 2.92 nM and the “Max. Inhib. (%)” value came out at 96.2%.
For B4, in that order: 2.84 nM and 96.3%.
